T1: GST–Scc2^C1100 (Scc2 amino acids 394–1493 fused to GST) (S. cerevisiae, UniProt Q04002 394-1493)
T1 construct: also called nearly full-length Scc2 fused to GST; not shown: GST, N-terminal, kept
T1 sequence (looked up): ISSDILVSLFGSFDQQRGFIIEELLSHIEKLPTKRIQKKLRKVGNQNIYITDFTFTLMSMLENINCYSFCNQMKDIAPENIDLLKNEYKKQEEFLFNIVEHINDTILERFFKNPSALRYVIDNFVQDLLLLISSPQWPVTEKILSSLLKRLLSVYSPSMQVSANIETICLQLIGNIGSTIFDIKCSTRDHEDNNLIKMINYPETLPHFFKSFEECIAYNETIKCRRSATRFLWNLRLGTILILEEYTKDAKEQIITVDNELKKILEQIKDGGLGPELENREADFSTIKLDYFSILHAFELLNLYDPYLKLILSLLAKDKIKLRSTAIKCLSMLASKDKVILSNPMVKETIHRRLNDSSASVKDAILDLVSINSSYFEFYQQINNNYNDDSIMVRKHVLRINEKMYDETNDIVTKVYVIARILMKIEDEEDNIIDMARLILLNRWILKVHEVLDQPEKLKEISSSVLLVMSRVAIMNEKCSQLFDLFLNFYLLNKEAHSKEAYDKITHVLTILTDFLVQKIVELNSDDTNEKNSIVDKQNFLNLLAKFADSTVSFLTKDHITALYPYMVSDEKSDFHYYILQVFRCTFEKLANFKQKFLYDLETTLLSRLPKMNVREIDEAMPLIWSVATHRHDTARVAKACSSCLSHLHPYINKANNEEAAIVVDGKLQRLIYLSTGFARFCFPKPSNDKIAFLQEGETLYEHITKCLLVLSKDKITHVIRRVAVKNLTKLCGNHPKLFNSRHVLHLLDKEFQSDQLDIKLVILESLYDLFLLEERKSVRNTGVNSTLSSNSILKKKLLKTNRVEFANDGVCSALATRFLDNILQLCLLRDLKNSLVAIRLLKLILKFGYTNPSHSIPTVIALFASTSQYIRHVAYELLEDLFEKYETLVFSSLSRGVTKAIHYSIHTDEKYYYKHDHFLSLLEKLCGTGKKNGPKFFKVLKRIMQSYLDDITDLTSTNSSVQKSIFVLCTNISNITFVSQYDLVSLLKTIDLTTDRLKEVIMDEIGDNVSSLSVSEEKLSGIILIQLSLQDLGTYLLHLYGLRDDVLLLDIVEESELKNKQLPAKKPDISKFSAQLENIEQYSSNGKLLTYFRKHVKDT

B1: GST–NIPBL^(C202 WT) (chicken NIPBL residues 2582–2783 fused to GST) (domain or fragment, UniProt F1NJ66 2582-2783, looked up)
chain: ANSKITEEVKRSIVKQYLDFKLLMEHLDPDEEEEDGEVSASTNARNKAITSLLGGGSPKNNAAETEDDESDGEDRGGGTSGSLRRSKRNSDSTELASQMNESVDVMDVIAICCPKYKDRPQIARVVQKTSNGFSVQWMAGSYSGSWTEAKRRDGRKLVPWVDTIKESDIIYKKIALTSANKLTNKVVQTLRSLYAAKDGTSS
notes: also called NIPBL C-terminal fragment (C202); not shown: GST, N-terminal, kept
B2: GST–NIPBL^(C202 pip1) (chicken NIPBL residues 2582–2783 with PIP1 mutated, fused to GST) (domain or fragment, UniProt F1NJ66 2582-2783, looked up)
chain: B1 chain with Q16A, L18A, F20A
notes: also called NIPBL^Q2597A,L2599A,F2601A; not shown: GST, N-terminal, kept
B3: N-terminally His-tagged yeast Pol30 (PCNA) (natural protein, S. cerevisiae, UniProt P15873 1-258, looked up)
chain: MLEAKFEEASLFKRIIDGFKDCVQLVNFQCKEDGIIAQAVDDSRVLLVSLEIGVEAFQEYRCDHPVTLGMDLTSLSKILRCGNNTDTLTLIADNTPDSIILLFEDTKKDRIAEYSLKLMDIDADFLKIEELQYDSTLSLPSSEFSKIVRDLSQLSDSINIMITKETIKFVADGDIGSGSVIIKPFVDMEHPETSIKLEMDQPVDLTFGAKYLLDIIKGSSLSDRVGIRLSSEAPALFQFDLKSGFLQFFLAPKFNDEE
notes: Pol30 (PCNA), S. cerevisiae; no measurement of the oligomer here; also called HisPol30; yeast PCNA; not shown: His, N-terminal, kept
B4: GST–Scc2PIP (Scc2 residues 1476–1493 fused to GST) (domain or fragment, S. cerevisiae, UniProt Q04002 1476-1493, looked up)
chain: YSSNGKLLTYFRKHVKDT
notes: also called PIP of Scc2 fused to GST; last 18 amino acids of Scc2; not shown: GST, N-terminal, kept

What all share (details): both partners purified
For assay [1], the target named is T2, N-terminally His-tagged chicken PCNA (chicken, UniProt Q9DEA3 1-262).
T2 construct: PCNA, chicken; also called HisPCNA; recombinant chicken PCNA; not shown: His, N-terminal, kept
Briefly: pull-down; GST–NIPBL fusions (chicken) on glutathione Sepharose 4B beads, recombinant N-terminally His-tagged chicken PCNA; blots with anti-PCNA and anti-GST.

The target in assay [2] is T1, GST–Scc2^C1100 (Scc2 amino acids …). Description: pull-down; GST–Scc2 fusions on glutathione Sepharose 4B beads, purified His-tagged yeast Pol30 (2.5 μg) in 0.7 ml binding buffer (1× PBS, 150 mM NaCl, 1% Triton X-100), overnight at 4 °C; western blot with anti-Pol30. A general note: A western blot detects proteins with antibodies after separation by electrophoresis.
In assay [3] the target is B3. The assay is described as above.

Changes are numbered by the printed parent chain. Names and notes keep the numbering of the source.

T2 sequence (Q9DEA3 whole entry): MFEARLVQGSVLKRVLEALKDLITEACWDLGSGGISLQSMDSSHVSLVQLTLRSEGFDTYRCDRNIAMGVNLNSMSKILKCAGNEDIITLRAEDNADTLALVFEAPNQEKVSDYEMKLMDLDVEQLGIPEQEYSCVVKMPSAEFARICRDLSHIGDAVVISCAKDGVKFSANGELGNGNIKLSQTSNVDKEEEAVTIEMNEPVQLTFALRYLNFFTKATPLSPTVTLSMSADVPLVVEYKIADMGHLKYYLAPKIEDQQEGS

For TNKVVQTLRSLYAAKDGTSS (domain or fragment, UniProt F1NJ66 2764-2783, looked up, not shown: GST, N-terminal, kept) [GST–NIPBL-PIP2 (chicken NIPBL amino acids 2764–2783 fused to GST)], the binding result in assay [1] is “binds”. Regarding TNKVVATARSLAAAKDGTSS (domain or fragment, UniProt F1NJ66 2764-2783, looked up, not shown: GST, N-terminal, kept) [GST–NIPBL-pip2 (chicken NIPBL amino acids 2764–2783, Q2769A,L2771A,Y2775A, fused to GST)], the binding result in assay [1] is “binds”. For B1, the binding result in assay [1] was “binds”.

Turning to B2, the binding result in assay [1] is on record as “binds”.

B3: in assay [2], the binding result is “binds”. With B4, the binding result in assay [3] was “binds”.

Source of the values: paper PMC10497406, “PCNA recruits cohesin loader Scc2 to ensure sister chromatid cohesion” (Nature Structural & Molecular Biology, 2023).
